US20190225691A1 (SHANGHAI HENLIUS BIOTECH, published 2019)

Assays:
human PD-L1 ECD-His [1] = biological target: T1, human PD-L1 ECD-His (human, UniProt Q9NZQ7 19-238); assay: SPR, 25 C, antibody captured by anti-human IgG Fc, hPD-L1_ECD-His analyte, 1:1 fit
T1 construct: extracellular domain; Analyte in all SPR and BLI runs; also called hPD-L1_ECD-His; hPD-L1 ECD-His; not shown: His tag
Protocol: Experiments were carried out at 25° C., and measurements were made with serial dilutions of hPD-L1_ECD-His from 55.4 nM to 11.1 nM passing over the captured antibodies in HBS-P+ buffer supplemented with 0.1% (w/v) BSA with a flow rate of […]. All data were analyzed with the evaluation software and curves were fit with a 1:1 Langmuir binding model. Data are representative of two independent experiments performed in duplicate.

[2] = biological target: T2, human PD-L1 on cells (PHA-activated human T cells); PD-L1-transfected CHO-S cells; A375 melanoma cells; … (human, UniProt Q9NZQ7 19-290); assay: flow cytometry blocking assay: PD-L1 expressing CHO-S cells incubated with antibody, then biotin-labeled PD-1-Fc and streptavidin-PE; MFI of bound PD-1
T2 construct: whole, on cells; also called PD-L1 expressing T cells; PD-L1 expressing CHO-S cells
Protocol: PD-L1 expressing CHO-S cells were suspended in FACS buffer (PBS with 4% FBS). Various concentrations of tested antibodies were added to the cell suspension (3.5E5 cells/well) and incubated at 4° C. for 30 minutes. […] The cells were washed and then stained with streptavidin-PE at 4° C. for 30 minutes. Flow cytometric analyses were performed using the Cytomics FC 500 (Beckman Coulter Inc.).
Anti-PD-L1 reference antibody and Avastin were used as the positive and negative control, respectively.

human PD-L1 ECD-His [3] = biological target: T1, human PD-L1 ECD-His; assay: BLI Octet RED96, biotinylated antibody on SA sensor, hPD-L1-His analyte, 1:1 fit
Protocol: (§1) Briefly, black 96-well plate was prepared with columns containing 200 μL/well of reagents required for determination of affinity. In general, Octet SA sensors were first placed in wells containing 1×Kinetics Buffer (PBS, 0.1% BSA, 0.02% Tween-20, pH 7.4) for 180 seconds to establish a baseline. […] Sensors were then regenerated by 3×5 second incubations in Regeneration Buffer (10 mM Glycine, pH 1.5) followed by a 5 second incubation in 1×Kinetics Buffer each time. Regeneration was repeated before measurement of each association/dissociation cycle. Sensors were then placed in fresh 1×Kinetics Buffer for 180 seconds to establish a baseline. Association was then measured by incubating the sensors for 5 minutes in wells containing hPD-L1-His followed by transferring to wells containing 1×Kinetics Buffer for 10 minutes to measure dissociation. Kinetics (ka, kd, and […] were measured by global fitting four association/dissociation cycles of data obtained from 1:3 serial dilutions of hPD-L1-His from 38.28 nM to 1.42 nM (one association/dissociation cycle for one concentration) with a 1:1 Langmuir binding model. All data were analyzed with Octet Data Analysis Software v.9.0 and representative of two independent experiments performed in duplicate.
(§2) All the data are representative of two independent experiments performed in duplicate.

human PD-L1 ECD-His [4] = biological target: T1, human PD-L1 ECD-His; assay: BLI, ratio of KD to ref-1
Protocol: as §1, §2

[5] = biological target: T3, recombinant cynomolgus monkey PD-L1_ECD Fc-fusion protein (Sino Biological Inc.) (cynomolgus monkey, UniProt G7PSE7 19-238); assay: ELISA: cynomolgus monkey PD-L1_ECD/Fc coated (9 ng/well), peroxidase-labeled goat anti-human IgG F(ab)'2, TMB, OD450
T3 construct: Bought
Protocol: The recombinant cynomolgus monkey PD-L1_ECD Fc-fusion proteins were purchased from Sino Biological Inc. PD-L1_ECD/Fc (9 ng per well) were immobilized onto 96-well assay plat by incubating overnight at 4° C. Nonspecific binding sites were blocked using 5% skim milk in PBS for one hour at room temperature. After washing plates three times with PBST, indicated concentrations of anti-PD-L1 antibodies and HLX01 (negative control) were incubated with the immobilized proteins for one hour at room temperature. The plates were washed three times with PBST and then incubated for one hour at room temperature with peroxidase-labeled goat anti-human IgG F(ab)′2 (Jackson ImmunoResearch Laboratories) diluted 1/10,000 in PBS. After washing, plates were developed using TMB (eBioscience). The absorbance was read at the wavelength of 450 nm by Varioskan LUX microplate reader (Thermo Scientific).
HLX01 (anti-CD20 mAb) was used as the negative control.

human PD-L1 ECD-His [6] = biological target: T1, human PD-L1 ECD-His; assay: SPR, hPD-L1-His, PL3 variants
human PD-L1 ECD-His [7] = biological target: T1, human PD-L1 ECD-His; assay: SPR, ratio of KD to ref-1
[8] = biological target: T2, human PD-L1 on cells (PHA-activated …); assay: flow cytometry on PHA-activated human CD3+ T cells, FITC-labeled anti-human IgG Fcγ, MFI
Protocol: Human T cells were isolated from PBMC using MagniSortTM Human T Cell Enrichment Kit (eBioscience). Isolated T cells were activated by 5 μg/mL phytohemagglutinin (PHA) for 3 days to stimulate the PD-L1 expression. Activated T cells were collected and incubated in FACS buffer (PBS with 2% FBS) with human Fc blocker (eBioscience) for 20 minutes at 4° C. Binding of anti-PD-L1 monoclonal antibody was assessed by incubating the activated T cells with the serial-diluted antibodies in FACS buffer. The cells were washed with flow buffer and the binding was detected with a FITC-labeled rabbit anti-human IgG FcγAb. Cells were also stained with mouse anti-human CD3 PE-Cy7 (eBioscience) for gating CD3-positive T cells. Flow cytometric analyses were performed using the Cytomics FC 500 (Beckman Coulter Inc.).

T2 sequence (Q9NZQ7 19-290): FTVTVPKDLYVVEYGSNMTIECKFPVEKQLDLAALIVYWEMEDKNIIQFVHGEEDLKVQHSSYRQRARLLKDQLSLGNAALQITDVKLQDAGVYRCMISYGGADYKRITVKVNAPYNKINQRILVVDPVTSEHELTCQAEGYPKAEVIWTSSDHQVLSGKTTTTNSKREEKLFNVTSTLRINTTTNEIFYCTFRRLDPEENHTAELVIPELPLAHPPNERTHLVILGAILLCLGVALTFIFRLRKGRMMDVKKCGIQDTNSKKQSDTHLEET
T1 sequence (Q9NZQ7 19-238): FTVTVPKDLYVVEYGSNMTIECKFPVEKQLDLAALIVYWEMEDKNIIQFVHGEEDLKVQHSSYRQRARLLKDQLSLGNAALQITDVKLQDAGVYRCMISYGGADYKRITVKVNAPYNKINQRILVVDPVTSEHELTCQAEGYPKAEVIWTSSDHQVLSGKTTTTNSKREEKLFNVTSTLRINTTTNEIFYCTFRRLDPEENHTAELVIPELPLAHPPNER
T3 sequence (G7PSE7 entry or part of it limits assumed): as the sequence (Q9NZQ7 19-238) above, with A33T, A34S, S62N, R68Q, Q82R, F173L, T185A, T192I, H215L counted along it

Kd (human PD-L1 ECD-His [6]) [nM]	koff (human PD-L1 ECD-His [6]) [s⁻¹]	kon (human PD-L1 ECD-His [6]) [M⁻¹ s⁻¹]	Improvement over ref-1 (human PD-L1 ECD-His [7]) [fold]	Binder	also measured
–	–	–	–	PL8 (full-length, N297A mutant human IgG1) (antibody, V domains shown) VH: EVQLVQSGAEVKKPGSSVKVSCKASGGTFSSYAISWVRQAPGQGLEWMGRIIPIFGTANYAQKFQGRVTITADESTSTAYMELSSLRSEDTAVYYCAREGVLDAFDIWGQGTMVTVSS VL: LSSELTQDPAVSVALGQTVRITCQGDSLRSYYVSWYQQKPGQAPVLVLYGKNNRPSGIPDRFSGSSSGSTASLTITGAQAEDEADYYCNSRDSTGNLLRVFGGGTKLTVLG	Kd (human PD-L1 ECD-His [1]): 8.85 nM; koff (human PD-L1 ECD-His [1]): 0.00348 s⁻¹; kon (human PD-L1 ECD-His [1]): 382000 M⁻¹ s⁻¹
–	–	–	–	PL6 (full-length, N297A mutant human IgG1) (antibody, V domains shown) VH: EVQLVQSGAEVKKPGSSVKVSCKASGGTFSSYTINWVRQAPGQGLEWVGKIIPILGIADYAQMFKGRVTITADKFTSTVYMELNSLRSEDTAVYYCARGGYVGYLNAFDIWGQGTMVTVSS VL: QSVVTQPPSVSGAPGQRVTISCTGSSSNIGAGYDVHWYQQLPGTAPKLLIYGNSNRPSGVPDRFSGSKSGTSASLAITGLQAEDEADYYCQSYDSSLSGGVFGGGTKLTVLG	IC50 (read off the curve) [2]: ~0.03 µg/mL; Kd (human PD-L1 ECD-His [1]): 11.2 nM; koff (human PD-L1 ECD-His [1]): 0.0122 s⁻¹; kon (human PD-L1 ECD-His [1]): 1.05e+06 M⁻¹ s⁻¹
–	–	–	–	PL3#7 mtIgG1 (antibody, V domains shown, Antibody was biotinylated (NHS-PEG4-biotin, sites not specified) for the Octet assay of Table 11., N297A mutant human IgG1) VH: QVQLVQSGAEVKKPGSSVKVSCKASGGTFSSYPISWVRQAPGQGLEWIGRIIPILGIANYAQKFQGRVTITADKSTSTAYMELSSLRSEDTAVYYCARSRDGYAFGAFDIWGQGTLVTVSS VL: QSVVTQPPPVSGAPGQRVTISCTGSSSNIGAGYDVHWYQQLPGTAPKLLIYGNSNRPSGVPDRFSGSKSGTSASLAITGLQAEDEADYYCQTYDSSLSARVVFGGGTKLTVLG	Kd (human PD-L1 ECD-His [3]): 1.09 nM; koff (human PD-L1 ECD-His [3]): 0.000305 s⁻¹; kon (human PD-L1 ECD-His [3]): 298000 M⁻¹ s⁻¹; Improvement over ref-1 (human PD-L1 ECD-His [4]): 2.26 fold; EC50 (read off the curve) [5]: ~0.04 µg/mL
0.457	0.000444	997000	1.38	PL3#7 IgG1 (antibody, V domains shown, Human IgG1) VH: QVQLVQSGAEVKKPGSSVKVSCKASGGTFSSYPISWVRQAPGQGLEWIGRIIPILGIANYAQKFQGRVTITADKSTSTAYMELSSLRSEDTAVYYCARSRDGYAFGAFDIWGQGTLVTVSS VL: QSVVTQPPPVSGAPGQRVTISCTGSSSNIGAGYDVHWYQQLPGTAPKLLIYGNSNRPSGVPDRFSGSKSGTSASLAITGLQAEDEADYYCQTYDSSLSARVVFGGGTKLTVL	–
0.349	0.000327	995000	1.81	PL3#7 IgG2 (antibody, V domains shown, Human IgG2) VH: QVQLVQSGAEVKKPGSSVKVSCKASGGTFSSYPISWVRQAPGQGLEWIGRIIPILGIANYAQKFQGRVTITADKSTSTAYMELSSLRSEDTAVYYCARSRDGYAFGAFDIWGQGTLVTVSS VL: QSVVTQPPPVSGAPGQRVTISCTGSSSNIGAGYDVHWYQQLPGTAPKLLIYGNSNRPSGVPDRFSGSKSGTSASLAITGLQAEDEADYYCQTYDSSLSARVVFGGGTKLTVL	–
0.321	0.000362	1.14e+06	1.97	PL3#7 IgG4 (antibody, V domains shown, Human IgG4) VH: QVQLVQSGAEVKKPGSSVKVSCKASGGTFSSYPISWVRQAPGQGLEWIGRIIPILGIANYAQKFQGRVTITADKSTSTAYMELSSLRSEDTAVYYCARSRDGYAFGAFDIWGQGTLVTVSS VL: QSVVTQPPPVSGAPGQRVTISCTGSSSNIGAGYDVHWYQQLPGTAPKLLIYGNSNRPSGVPDRFSGSKSGTSASLAITGLQAEDEADYYCQTYDSSLSARVVFGGGTKLTVL	–
–	–	–	–	PL15 (full-length, N297A mutant human IgG1) (antibody, V domains shown) VH: QVQLVQSGAEVKKPGSSVKVSCKASGGTFSSYTISWVRQAPGQGLEWMGRIIPILGIANYAQKFQGRVTITADKSTSTAYMELSSLRSEDTAVYYCARSRDGYSFGAFDIWGQGTLVTVSS VL: QSVLTQPPSVSGAPGQRVTISCTGYSSNIGAGYDVHWYQHLPGTAPKLLIYGNSNRPSGVPDRFSGSKSGTSASLAITGLQAEDEADYYCQSYDNSLSVSVFGGGTKLTVLG	IC50 (read off the curve) [2]: ~0.06 µg/mL; EC50 (read off the curve) [8]: ~0.03 µg/mL; Kd (human PD-L1 ECD-His [1]): 15 nM; koff (human PD-L1 ECD-His [1]): 0.00933 s⁻¹; kon (human PD-L1 ECD-His [1]): 645000 M⁻¹ s⁻¹
0.74	0.00067	931000	0.85	PL3#1 IgG2 (antibody, V domains shown, Human IgG2) VH: QVQLVQSGAEVKKPGSSVKVSCKASGGTFSSYRISWVRQAPGQGLEWMGRIIPILGIANYAQKFQGRVTITADKSTSTAYMELSSLRSEDTAVYYCARSRDGYSVGAFDSWGQGTLVTVSS VL: QSVVTQPPPVSGAPGQRVTISCTGSSSNIGAGYDVHWYQQLPGTAPKLLIYGNSRRPSGVPDRFSGSKSGTSASLAITGLQAEDEADYYCQTYDSSLSRPVVFGGGTKLTVL	–
6.64	0.00277	417000	0.1	PL3 IgG2 (antibody, V domains shown, Human IgG2) VH: QVQLVQSGAEVKKPGSSVKVSCKASGGTFSSYTISWVRQAPGQGLEWMGRIIPILGIANYAQKFQGRVTITADKSTSTAYMELSSLRSEDTAVYYCARSRDGYSFGAFDIWGQGTLVTVSS VL: QSVVTQPPPVSGAPGQRVTISCTGSSSNIGAGYDVHWYQQLPGTAPKLLIYGNSNRPSGVPDRFSGSKSGTSASLAITGLQAEDEADYYCQSYDSSLSAPVVFGGGTKLTVL	–
5.46	0.00291	542000	0.12	PL3 IgG1 (antibody, V domains shown) VH: QVQLVQSGAEVKKPGSSVKVSCKASGGTFSSYTISWVRQAPGQGLEWMGRIIPILGIANYAQKFQGRVTITADKSTSTAYMELSSLRSEDTAVYYCARSRDGYSFGAFDIWGQGTLVTVSS VL: QSVVTQPPPVSGAPGQRVTISCTGSSSNIGAGYDVHWYQQLPGTAPKLLIYGNSNRPSGVPDRFSGSKSGTSASLAITGLQAEDEADYYCQSYDSSLSAPVVFGGGTKLTVL	–
0.366	0.000395	1.1e+06	1.73	PL3#1 mtIgG1 (N297A) (antibody, V domains shown, N297A mutant human IgG1) VH: QVQLVQSGAEVKKPGSSVKVSCKASGGTFSSYRISWVRQAPGQGLEWMGRIIPILGIANYAQKFQGRVTITADKSTSTAYMELSSLRSEDTAVYYCARSRDGYSVGAFDSWGQGTLVTVSS VL: QSVVTQPPPVSGAPGQRVTISCTGSSSNIGAGYDVHWYQQLPGTAPKLLIYGNSRRPSGVPDRFSGSKSGTSASLAITGLQAEDEADYYCQTYDSSLSRPVVFGGGTKLTVL	–
